Assay results from publication PMC2757176.

Molecular target: PLC-γ1 (UniProt Q62077)
Assay: IP of PLC-γ1, blot for EAT-2
Settings: reference: wild type EGFP-EAT-2; sites Y120,Y127

binding against the reference: lost
Substance: EAT-2 (from UniProt O35324) Y120F + Y127F double mutant (FF)
